Values joined by “and” are separate entries in the source; they are usually repeats but may differ in a detail not shown here. Equal entries are not always repeated.
B1: M1: Taq mutant G84A, D144G, K314R, E520G, F598L, A608V, E742G; SEQ ID NO: 1 (protein)
chain: MRGMLPLFEPKGRVLLVDGHHLAYRTFHALKGLTTSRGEPVQAVYGFAKSLLKALKEDGDAVIVVFDAKAPSFRHEAYGGYKAARAPTPEDFPRQLALIKELVDLLGLARLEVPGYEADDVLASLAKKAEKEGYEVRILTADKGLYQLLSDRIHVLHPEGYLITPAWLWEKYGLRPDQWADYRALTGDESDNLPGVKGIGEKTARKLLEEWGSLEALLKNLDRLKPAIREKILAHMDDLKLSWDLAKVRTDLPLEVDFAKRREPDRERLRAFLERLEFGSLLHEFGLLESPKALEEAPWPPPEGAFVGFVLSRREPMWADLLALAAAAGGRVHRAPEPYKALRDLKEARGLLAKDLSVLALREGLGLPPGDDPMLLAYLLDPSNTTPEGVARRYGGEWTEEAGERAALSERLFANLWGRLEGEERLLWLYREVERPLSAVLAHMEATGVRLDVAYLRALSLEVAEEIARLEAEVFRLAGHPFNLNSRDQLERVLFDELGLPAIGKTEKTGKRSTSAAVLGALREAHPIVEKILQYRELTKLKSTYIDPLPDLIHPRTGRLHTRFNQTATATGRLSSSDPNLQNIPVRTPLGQRIRRAFIAEEGWLLVVLDYSQIELRVLAHLSGDENLIRVFQEGRDIHTETASWMFGVPREAVDPLMRRAAKTINFGVLYGMSAHRLSQELAIPYEEAQAFIERYFQSFPKVRAWIEKTLEEGRRRGYVETLFGRRRYVPDLEARVKSVRGAAERMAFNMPVQGTAADLMKLAMVKLFPRLEEMGARMLLQVHDELVLEAPKERAEAVARLAKEVMEGVYPLAVPLEVEVGIGEDWLSAKE
modifications: Mutant Thermus aquaticus DNA polymerase
B2: M4: Taq mutant D58G, R74P, A109T, L245R, R343G, G370D, E520G, N583S, E694K, A743P; SEQ ID NO 2 (protein)
chain: MRGMLPLYEPKGRVLLVDGHHLAYRTFHALKGLTTSRGEPVQAVYGFAKSLLKALKEGGDAVIVVFDAKAPSFPHEAYGGYKAGRAPTPEDFPRQLALIKELVDLLGLTRLEVPGYEADDVLASLAKKAEKEGYEVRILTADKDLYQLLSDRIHVLHPEGYLITPAWLWEKYGLRPDQWADYRALTGDESDNLPGVKGIGEKTARKLLEEWGSLEALLKNLDRLKPAIREKILAHMDDLKLSWDRAKVRTDLPLEVDFAKRREPDRERLRAFLERLEFGSLLHEFGLLESPKALEEAPWPPPEGAFVGFVLSRKEPMWADLLALAAARGGRVHRAPEPYKALGDLKEARGLLAKDLSVLALREGLGLPPDDDPMLLAYLLDPSNTTPEGVARRYGGEWTEEAGERAALSERLFANLWGRLEGEERLLWLYREVERPLSAVLAHMEATGVRLDVAYLRALSLEVAEEIARLEAEVFRLAGHPFNLNSRDQLERVLFDELGLPAIGKTEKTGKRSTSAAVLGALREAHPIVEKILQYRELTKLKSTYIDPLPDLIHPRTGRLHTRFNQTATATGRLSSSDPNLQSIPVRTPLGQRIRRAFIAEEGWLLVALDYSQIELRVLAHLSGDENLIRVFQEGRDIHTETASWMFGVPREAVDPLMRRAAKTINFGVLYGMSAHRLSQELAIPYEEAQAFIKRYFQSFPKVRAWIEKTLEEGRRRGYVETLFGRRRYVPDLEARVKSVREPAERMAFNMPVQGTAADLMKLAMVKLFPRLEEMGARMLLQVHDELVLEAPKERAEAVARLAKEVMEGVYPLAVPLEVEVGIGEDWLSAKE
modifications: Mutant Thermus aquaticus DNA polymerase

What was measured:
Assay type in all cases: biochemical
[1] = tested on: primer-template duplex, correct or incorrect incoming dNTP; assay: Steady-state single nucleotide incorporation kinetics, gel-based assay
Experimental: Kinetic parameters were determined using a gel-based assay essentially as described (16). Primers 15, 16, 17 (3′ base=G, C, A respectively) were ^32P-labeled and annealed to one of template strands 18, 19, 20 (template base=C, G, A respectively) or 21 (template base C different context). Duplex substrates were used at 50 nM final concentration in 1× Taq buffer with various concentrations of enzyme and dNTP. Reactions were carried out at 60° C. for times whereby <20% of primer-template was utilized at the highest concentration of dNTP.
Extension and incorporation kinetics of M1 and M4 for a selection of mismatches were measured using a gel-based steady-state kinetic assay (Goodman) (Tables 1 & 2). M1 and M4 respectively extend a C•C mispair 390 and 75-fold more efficiently than wtTaq. […] The gain in extension efficiency derives predominantly from increased relative Vmax values for the mutant polymerases, while Km for nucleotide substrates remains largely unchanged. For most DNA polymerases the relative efficiency of extending a given mispair (f0ext) is similar to the relative efficiency of forming it (finc) (Goodman 1993, Goodman 1990, Washington 2001). Indeed, M1 and M4 respectively incorporate dCTP opposite template base C 206- and 29-fold more efficiently than wtTaq (Table 2).

[2] = tested on: template containing a cis-syn cyclobutane thymine-thymine dimer (CPD); assay: Translesion replication assay (primer extension), CPD; conditions: gel-extension assay, 60° C.
Experimental: Template primers 22 (undamaged) or 23 (containing a synthetic abasic site) were synthesized by Lofstrand Laboratories (Gaithersburg, Md.). Template primer 24 (containing a single cis-syn thymine dimer), was synthesized as described (34). Primer 25 was ^32P-labeled and annealed to one of the three templates 22, 23, 24 (at a primer template ratio of molar 1:1.5) and extended in 40 mM Tris.HCl at pH 8.0, 5 mM MgCl2, 100 μM of each dNTP, 10 mM DTT, 250 μg/ml BSA, 2.5% glycerol, 10 nM primer-template DNA and 0.1 Unit of polymerase at 60° C. for various times.
Primer extension assays were essentially as described in (Ghadessy et al., 2004). Briefly, undamaged oligonucleotides and a 51mer containing a synthetic abasic site were synthesized by Lofstrand Laboratories (Gaithersburg, Md.) using standard techniques and were gel purified prior to use. A 20mer primer (LES—20 P) with the sequence 5′-[…]-3′ (SEQ ID NO: 99) was 5′-labeled with [^32P]ATP (5000 Ci/mmole; 1 Ci=37 GBq) (Pharmacia) using T4 polynucleotide kinase (Invitrogen, Carlsbad Calif.). Radiolabeled primer-template DNAs were prepared by annealing the 5′[^32P] labeled 20mer primer to one of the two following 51mer templates (at a primer template ratio of molar 1:1.5). 1) undamaged DNA (UNDT51T); 5′-AGCTACCATGCCTGCACGAATTCGGCATCCGTCGCGACCACGGTCGCAGCG-3′ (SEQ ID NO: 100); 2) an oligo (LABA51T) containing a synthetic abasic site (indicated as an X in bold font); 5′-AGCTACCATGCCTGCACGACA XCG GCATCCGTCGCGACCACGGTCGCAGCG-3′ (SEQ ID NO: 101). Standard replication reactions of 10 contained 40 mM Tris.HCl at pH 8.0, 5 mM MgCl2, 100 μM of each ultrapure dNTP (Amersham Pharmacia Biotech, NJ), 10 mM DTT, 250 μg/ml BSA, 2.5% glycerol, 10 nM 5′[32P] primer-template DNA and 0.1 Unit of polymerase. After incubation at 60° C. for various times reactions were terminated by the addition of 10 μl of 95% formamide/10 mM EDTA and the samples heated to 100° C. for 5 min. Reaction mixtures (5 μl) were subjected to 20% polyacrylamide/7 M Urea gel electrophoresis and replication products visualized by PhosphorImager analysis.

[3] = tested on: primer-template DNA substrates; assay: Processivity primer extension assay with and without trap DNA; conditions: for processivity compared with wtTaq: even at the lowest enzyme concentrations; for bound polymerase that extended primers to the end of the template: in the presence of trap DNA (single DNA binding event)
Experimental: Processivity was measured using a primer extension assay the presence and absence of trap DNA. Termination probabilities were calculated according to the method of Kokoska et al.
Oligonucleotide primer 32 (5′-GCGGTGTAGAGACGAGTGCGGAG-3′) (SEQ ID NO: 117) was ^32P-labelled and annealed to the template 33 (5′-CTCTCACAAGCAGCCAGGCAAGCTCCGCACTCGTCTCTACACCGCTCCGC-3′ (SEQ ID NO: 118)) (at a primer/template ratio of molar 1/1.5). wtTaq (0.0025 nM; 0.025 nM; 0.25 nM), M1(0.05 nM; 0.5 nM; 5 nM), and M4 (0.05 nM; 0.5 nM; 5 nM) were preincubated with the primer-template DNA substrates (10 nM) in 10 mM Tris-HCl at pH 9.0, 5 mM MgCl2, 50 mM KCl, 0.1% Triton X 100 at 25° C. for 15 min. Reactions were initiated by addition of 100 μM dNTPs with or without trap DNA (1000-fold excess of unlabeled primer-templates). Reactions were performed at 60° C. for 2 min. […] Thus, in the presence of trap DNA, all DNA synthesis resulted from a single DNA binding event. Gel band intensities were calculated using a Phosphoimager and ImageQuant (both Molecular Dynamics) software. Percentage of polymerase molecules, which extended primers to the end of the template was calculated using the formula: In×100%/(I1+I2+ . . . +In), where In is the intensity of the band at position 22 or 23; I1, I2 . . . is the intensity of the band at position 1, 2 . . . . Termination probabilities (τ) were calculated according to the method of Kokoska et al^1, whereby t at a particular template position was calculated as the intensity of the band at this position divided by the sum of the intensity of this band and the band intensities of all longer products.

[4] = base pair C: dCTP (template base: incoming nucleotide)
[5] = base pair C: dGTP (template base: incoming nucleotide), correct dNTP
[6] = base pair C: dGTP, correct dNTP
[7] = base pair G: dATP (template base: incoming nucleotide)
[8] = base pair G: dCTP (template base: incoming nucleotide), correct dNTP
[9] = base pair G: dCTP, correct dNTP
[10] = base pair G: dGTP (template base: incoming nucleotide)
[11] = base pair G: dTTP (template base: incoming nucleotide)

| Molecule | Km ([1]; base pair C: dCTP) | Ratio of finc, finc (mutant polymerase)/finc (wtTaq) ([1]; base pair C: dCTP) | finc, f (incorrect dNTP)/f (correct dNTP) ([1]; base pair C: dCTP) | Vmax [1, 4] | Vmax [1, 5] | Km [1, 6] | Km ([1]; base pair G: dATP) | Ratio of finc, finc (mutant polymerase)/finc (wtTaq) ([1]; base pair G: dATP) | finc, f (incorrect dNTP)/f (correct dNTP) ([1]; base pair G: dATP) | Vmax [1, 7] | Vmax [1, 8] | Km [1, 9] | Km ([1]; base pair G: dGTP) | Ratio of finc, finc (mutant polymerase)/finc (wtTaq) ([1]; base pair G: dGTP) | finc, f (incorrect dNTP)/f (correct dNTP) ([1]; base pair G: dGTP) | Vmax [1, 10] | Km ([1]; base pair G: dTTP) | Ratio of finc, finc (mutant polymerase)/finc (wtTaq) ([1]; base pair G: dTTP) | finc, f (incorrect dNTP)/f (correct dNTP) ([1]; base pair G: dTTP) | Vmax [1, 11] | also measured |
| --- | --- | --- | --- | --- | --- | --- | --- | --- | --- | --- | --- | --- | --- | --- | --- | --- | --- | --- | --- | --- | --- |
| B1 | 264 µM | 206 and 206.74 | 7.97 × 10^−6 | 6.08 % Min^−1 | 111.66 % Min^−1 | 0.0387 µM | 257 µM | 2.08 | 1.72 × 10^−4 | 681.82 % Min^−1 | 308 % Min^−1 | 0.02 µM | 377 µM | 21.88 | 3.72 × 10^−5 | 215.98 % Min^−1 | 1.65 µM | 2.43 | 4.01 × 10^−4 | 10.19 % Min^−1 | CPD bypass in primer extension [2]: able to readily extend all of the primer to the 3′T of the dimer; processivity compared with wtTaq [3]: processivity equal (or higher) than wtTaq; bound polymerase that extended primers to the end of the template [3]: 28%; termination probability ([3]; positions 6 and 7): 1% |
| B2 | 1390 µM | 29 and 29.22 | 1.13 × 10^−6 | 52.63 % Min^−1 | 335.42 % Min^−1 | 0.01 µM | 158 µM | 2.18 | 1.80 × 10^−4 | 1935.48 % Min^−1 | 817 % Min^−1 | 0.012 µM | 82.3 µM | 68.82 | 1.17 × 10^−4 | 656.46 % Min^−1 | 5.1 µM | 1.1 | 1.82 × 10^−4 | 63.20 % Min^−1 | CPD bypass in primer extension [2]: able to readily extend all of the primer to the 3′T of the dimer; processivity compared with wtTaq [3]: processivity equal (or higher) than wtTaq; bound polymerase that extended primers to the end of the template [3]: 15%; termination probability ([3]; positions 2 through 5): 13-35%; termination probability ([3]; positions 6 and 7): 2-4% |
